Measured values reported in patent US20240261333A1 (published 2024).

How the values were obtained:
Assay in all cases: co-IP, anti-FLAG, lysate of cells with C-FLAG B3GNT2; mass spectrometry
C1orf68 = target: T1, C1orf68 (human, UniProt Q5T750 1-250)
T1 construct: also called NP_001019850.1
Method: (§1) Cells were plated in 10-cm cell culture dishes and grown to 60-80% confluency. For each condition, two biological replicates were harvested for co-IP. Cells were washed with PBS and 4 mL of lysis buffer (20 mM HEPES, 1% Triton X-100, 150 mM NaCl, 1 mM EDTA, and 10% glycerol) containing protease inhibitor cocktail was added. Cells were scraped and lysate was incubated at 4° C. under rotary agitation for 1 h. Lysate was centrifuged at 14,000×g for 10 min at 4° C. Supernatant was transferred to a new tube and an aliquot was taken as the input. […] For Western blots, 10 μg/mL Chicken Anti-FLAG (Aves labs ET-DY100) and IgY control (R&D Systems AB-101-C) antibodies were biotinylated (Thermo Fisher Scientific 90407) and added to the respective conditions. Lysates with antibodies were incubated at 4° C. under rotary agitation overnight. For each mL of lysate, 50 μL of Pierce Protein A/G Magnetic Beads (Mass spectrometry; Thermo Fisher Scientific 88803) or Pierce Streptavidin Magnetic Beads (Western blot; Thermo Fisher Scientific 88817) was washed twice with lysis buffer. Lysates with antibodies were added to the beads and incubated at 4° C. under rotary agitation for 4 h. Beads were washed with lysis buffer 3 times and resuspended in lysis buffer for storage.
(§2) Magnetic beads were resuspended in 100 mM Tris pH 7.8, reduced, alkylated and digested with trypsin at 37° ° C. overnight. This solution was subjected to solid phase extraction to concentrate the peptides and remove unwanted reagents followed by injection onto a Shimadzu HPLC with fraction collector. Eight fractions were collected and after concentration were injected on a Waters NanoAcquity HPLC equipped with a self-packed Aeris 3 μm C18 analytical column 0.075 mm by 20 cm, (Phenomenex). Peptides were eluted using standard reverse-phase gradients. The effluent from the column was analyzed using a Thermo Orbitrap Elite mass spectrometer (nanospray configuration) operated in a data dependent manner for 54 minutes. The resulting fragmentation spectra were correlated against the known database using Proteome Discover 1.4 (Thermo Fisher Scientific).

FAU = FAU (human, UniProt P62861 75-133)
Method: as §1, §2

KRT6B = target: T2, KRT6B (human, UniProt P04259 2-564)
T2 construct: also called NP_00546.2
T2 sequence (looked up): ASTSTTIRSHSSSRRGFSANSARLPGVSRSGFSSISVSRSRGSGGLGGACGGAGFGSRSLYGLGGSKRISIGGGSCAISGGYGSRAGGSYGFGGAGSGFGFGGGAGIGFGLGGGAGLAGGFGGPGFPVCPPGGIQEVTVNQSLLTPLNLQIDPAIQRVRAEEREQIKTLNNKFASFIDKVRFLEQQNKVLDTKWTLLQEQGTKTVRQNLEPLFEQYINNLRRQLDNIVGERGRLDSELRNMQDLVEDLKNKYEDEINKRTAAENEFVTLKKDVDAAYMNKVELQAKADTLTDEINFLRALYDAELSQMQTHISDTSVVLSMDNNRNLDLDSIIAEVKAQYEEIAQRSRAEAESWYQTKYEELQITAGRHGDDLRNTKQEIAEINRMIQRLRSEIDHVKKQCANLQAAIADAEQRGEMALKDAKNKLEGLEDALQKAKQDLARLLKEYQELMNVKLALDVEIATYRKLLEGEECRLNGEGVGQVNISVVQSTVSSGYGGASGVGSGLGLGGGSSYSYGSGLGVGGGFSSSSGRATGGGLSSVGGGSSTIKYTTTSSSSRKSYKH
Method: as §1, §2

HNRNPK = target: T3, HNRNPK (human, UniProt P61978-3 1-440, limits assumed)
T3 construct: also called NP_001305115.1 (+1)
Method: as §1, §2

RPS3 = RPS3 (human, UniProt P23396 2-243)
Method: as §1, §2

HUWE1 = target: T4, HUWE1 (human, UniProt Q7Z6Z7 1-4374)
T4 construct: also called NP_113584.3 (+11)
T4 sequence (Q7Z6Z7 whole entry): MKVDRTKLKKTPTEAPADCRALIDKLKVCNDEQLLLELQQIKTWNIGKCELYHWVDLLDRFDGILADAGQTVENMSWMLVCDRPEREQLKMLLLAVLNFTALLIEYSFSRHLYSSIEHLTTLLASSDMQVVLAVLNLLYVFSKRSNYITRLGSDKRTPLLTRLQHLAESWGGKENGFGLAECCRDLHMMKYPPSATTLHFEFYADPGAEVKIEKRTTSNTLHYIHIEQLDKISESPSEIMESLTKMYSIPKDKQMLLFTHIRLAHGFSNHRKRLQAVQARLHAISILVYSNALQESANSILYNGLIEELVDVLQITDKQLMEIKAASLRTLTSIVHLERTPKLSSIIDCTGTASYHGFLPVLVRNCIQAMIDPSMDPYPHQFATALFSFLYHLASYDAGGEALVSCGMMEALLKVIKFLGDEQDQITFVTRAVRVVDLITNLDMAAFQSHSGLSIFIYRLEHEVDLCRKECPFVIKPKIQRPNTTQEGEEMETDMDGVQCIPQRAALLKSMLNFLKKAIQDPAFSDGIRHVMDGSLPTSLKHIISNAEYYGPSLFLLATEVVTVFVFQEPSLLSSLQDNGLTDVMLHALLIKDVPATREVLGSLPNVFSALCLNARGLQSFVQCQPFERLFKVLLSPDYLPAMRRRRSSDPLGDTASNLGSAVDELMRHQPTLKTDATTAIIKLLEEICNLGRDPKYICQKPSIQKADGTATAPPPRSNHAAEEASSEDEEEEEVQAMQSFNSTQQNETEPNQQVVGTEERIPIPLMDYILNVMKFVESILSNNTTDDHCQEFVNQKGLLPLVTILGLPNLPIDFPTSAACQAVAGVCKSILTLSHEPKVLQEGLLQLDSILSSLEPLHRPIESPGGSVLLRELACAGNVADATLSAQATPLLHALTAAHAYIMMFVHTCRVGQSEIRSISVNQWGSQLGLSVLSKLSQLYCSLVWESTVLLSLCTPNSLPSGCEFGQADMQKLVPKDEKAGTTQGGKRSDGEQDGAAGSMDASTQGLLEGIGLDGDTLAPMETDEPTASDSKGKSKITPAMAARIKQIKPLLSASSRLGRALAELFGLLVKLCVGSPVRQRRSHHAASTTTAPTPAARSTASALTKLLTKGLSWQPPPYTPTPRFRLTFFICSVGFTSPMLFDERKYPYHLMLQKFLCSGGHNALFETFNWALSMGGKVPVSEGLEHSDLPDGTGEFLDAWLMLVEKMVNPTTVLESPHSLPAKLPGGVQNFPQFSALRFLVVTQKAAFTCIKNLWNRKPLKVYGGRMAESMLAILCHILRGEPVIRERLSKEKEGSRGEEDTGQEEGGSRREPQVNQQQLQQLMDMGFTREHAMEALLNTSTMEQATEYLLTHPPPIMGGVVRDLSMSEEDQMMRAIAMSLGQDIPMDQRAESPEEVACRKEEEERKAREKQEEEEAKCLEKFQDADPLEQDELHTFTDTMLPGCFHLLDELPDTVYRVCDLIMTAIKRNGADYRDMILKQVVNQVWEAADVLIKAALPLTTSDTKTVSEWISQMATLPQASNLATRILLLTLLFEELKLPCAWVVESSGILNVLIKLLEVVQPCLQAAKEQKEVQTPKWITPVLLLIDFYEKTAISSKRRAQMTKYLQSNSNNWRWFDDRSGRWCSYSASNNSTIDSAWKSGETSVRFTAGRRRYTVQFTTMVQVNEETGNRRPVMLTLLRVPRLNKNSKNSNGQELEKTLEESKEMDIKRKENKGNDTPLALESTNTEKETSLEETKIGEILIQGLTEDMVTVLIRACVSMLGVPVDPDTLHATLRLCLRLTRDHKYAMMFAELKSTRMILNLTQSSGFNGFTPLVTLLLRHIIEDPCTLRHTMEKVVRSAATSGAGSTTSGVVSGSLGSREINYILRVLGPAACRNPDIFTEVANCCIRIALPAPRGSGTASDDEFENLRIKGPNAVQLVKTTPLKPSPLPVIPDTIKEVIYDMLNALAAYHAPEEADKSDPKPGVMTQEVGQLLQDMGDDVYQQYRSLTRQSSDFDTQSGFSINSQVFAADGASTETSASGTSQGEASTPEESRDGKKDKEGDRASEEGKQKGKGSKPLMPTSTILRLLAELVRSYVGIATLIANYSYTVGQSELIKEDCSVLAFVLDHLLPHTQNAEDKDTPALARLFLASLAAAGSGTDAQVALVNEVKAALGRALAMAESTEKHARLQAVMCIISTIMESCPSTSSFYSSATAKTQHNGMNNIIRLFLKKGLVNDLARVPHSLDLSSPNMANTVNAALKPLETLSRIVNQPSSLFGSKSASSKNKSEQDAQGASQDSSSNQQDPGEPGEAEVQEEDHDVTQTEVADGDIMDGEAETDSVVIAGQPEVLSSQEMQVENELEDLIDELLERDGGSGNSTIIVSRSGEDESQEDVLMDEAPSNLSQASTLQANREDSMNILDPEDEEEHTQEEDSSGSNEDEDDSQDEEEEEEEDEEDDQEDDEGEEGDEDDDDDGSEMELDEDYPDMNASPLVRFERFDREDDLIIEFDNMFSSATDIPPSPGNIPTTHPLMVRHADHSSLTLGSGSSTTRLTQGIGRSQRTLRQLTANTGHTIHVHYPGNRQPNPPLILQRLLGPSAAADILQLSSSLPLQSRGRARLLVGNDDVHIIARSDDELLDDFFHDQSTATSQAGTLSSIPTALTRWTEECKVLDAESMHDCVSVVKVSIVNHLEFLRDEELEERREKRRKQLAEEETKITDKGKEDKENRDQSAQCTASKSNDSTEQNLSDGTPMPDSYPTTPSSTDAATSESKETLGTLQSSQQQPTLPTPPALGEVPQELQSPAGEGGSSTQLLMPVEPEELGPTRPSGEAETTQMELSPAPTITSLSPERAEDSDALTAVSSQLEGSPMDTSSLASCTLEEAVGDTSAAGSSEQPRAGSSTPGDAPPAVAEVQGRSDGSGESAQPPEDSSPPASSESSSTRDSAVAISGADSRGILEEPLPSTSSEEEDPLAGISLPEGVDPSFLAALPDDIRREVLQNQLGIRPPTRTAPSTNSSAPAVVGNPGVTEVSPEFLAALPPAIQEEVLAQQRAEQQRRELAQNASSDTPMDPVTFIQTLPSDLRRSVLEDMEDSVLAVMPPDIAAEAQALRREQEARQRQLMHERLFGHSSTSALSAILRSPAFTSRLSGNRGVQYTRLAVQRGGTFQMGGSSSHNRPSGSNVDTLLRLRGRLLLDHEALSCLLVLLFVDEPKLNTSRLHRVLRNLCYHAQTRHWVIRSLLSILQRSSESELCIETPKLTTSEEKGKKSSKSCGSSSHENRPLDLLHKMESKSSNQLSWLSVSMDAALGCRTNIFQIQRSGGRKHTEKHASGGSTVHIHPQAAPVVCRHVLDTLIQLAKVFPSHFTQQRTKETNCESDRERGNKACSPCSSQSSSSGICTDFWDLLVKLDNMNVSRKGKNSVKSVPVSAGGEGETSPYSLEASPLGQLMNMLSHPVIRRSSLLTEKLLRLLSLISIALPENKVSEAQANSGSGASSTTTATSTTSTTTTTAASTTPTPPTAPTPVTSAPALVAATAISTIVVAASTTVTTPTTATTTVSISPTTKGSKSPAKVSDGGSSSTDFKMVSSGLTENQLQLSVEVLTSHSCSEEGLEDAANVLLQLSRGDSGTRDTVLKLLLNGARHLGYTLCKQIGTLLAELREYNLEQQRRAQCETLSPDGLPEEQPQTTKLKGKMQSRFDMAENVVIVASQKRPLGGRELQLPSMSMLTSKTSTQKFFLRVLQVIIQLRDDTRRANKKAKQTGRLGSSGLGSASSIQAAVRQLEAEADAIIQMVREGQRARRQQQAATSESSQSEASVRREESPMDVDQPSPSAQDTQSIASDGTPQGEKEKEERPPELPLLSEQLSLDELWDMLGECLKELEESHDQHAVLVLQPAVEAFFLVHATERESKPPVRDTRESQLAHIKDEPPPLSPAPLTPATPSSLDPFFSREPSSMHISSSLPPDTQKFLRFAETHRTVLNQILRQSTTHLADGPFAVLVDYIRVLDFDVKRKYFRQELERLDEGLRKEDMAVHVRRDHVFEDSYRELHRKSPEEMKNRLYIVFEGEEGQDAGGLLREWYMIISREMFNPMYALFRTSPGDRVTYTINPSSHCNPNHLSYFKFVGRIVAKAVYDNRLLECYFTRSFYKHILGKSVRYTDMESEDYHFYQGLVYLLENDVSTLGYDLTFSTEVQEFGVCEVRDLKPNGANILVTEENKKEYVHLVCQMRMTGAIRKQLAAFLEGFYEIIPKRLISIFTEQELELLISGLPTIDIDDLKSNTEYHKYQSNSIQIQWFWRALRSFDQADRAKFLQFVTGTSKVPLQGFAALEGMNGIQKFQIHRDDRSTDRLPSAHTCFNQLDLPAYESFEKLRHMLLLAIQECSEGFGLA
Method: as §1, §2

PRBP1 = target: T5, PRBP1 (human, UniProt P26599 1-557)
T5 construct: Label 'PRBP1' is probably a misprint of PTBP1; also called NP_002810.1 (+4)
T5 sequence (P26599 whole entry): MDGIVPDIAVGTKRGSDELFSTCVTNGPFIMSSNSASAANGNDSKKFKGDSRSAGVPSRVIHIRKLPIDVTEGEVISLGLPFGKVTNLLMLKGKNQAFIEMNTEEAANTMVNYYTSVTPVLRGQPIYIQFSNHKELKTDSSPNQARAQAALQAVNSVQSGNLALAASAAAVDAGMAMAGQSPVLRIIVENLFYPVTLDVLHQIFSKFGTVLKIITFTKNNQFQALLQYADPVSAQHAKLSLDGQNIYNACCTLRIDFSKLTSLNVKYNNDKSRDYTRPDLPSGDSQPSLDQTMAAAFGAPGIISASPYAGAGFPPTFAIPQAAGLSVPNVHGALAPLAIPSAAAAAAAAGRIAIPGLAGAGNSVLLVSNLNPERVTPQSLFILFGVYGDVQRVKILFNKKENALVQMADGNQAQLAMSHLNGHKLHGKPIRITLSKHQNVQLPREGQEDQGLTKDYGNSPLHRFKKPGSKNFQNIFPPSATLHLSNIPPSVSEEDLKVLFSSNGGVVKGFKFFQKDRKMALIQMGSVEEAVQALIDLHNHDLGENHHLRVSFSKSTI
Method: as §1, §2

GGCT = target: T6, GGCT (human, UniProt O75223 1-188)
T6 construct: also called NP_076956.1
T6 sequence (looked up): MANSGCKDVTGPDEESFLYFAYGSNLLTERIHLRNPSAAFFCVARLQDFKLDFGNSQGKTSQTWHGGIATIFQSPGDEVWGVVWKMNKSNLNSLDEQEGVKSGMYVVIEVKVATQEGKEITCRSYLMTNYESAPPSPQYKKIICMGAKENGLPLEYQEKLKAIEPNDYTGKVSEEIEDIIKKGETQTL
Method: as §1, §2

PRRC2A = target: T7, PRRC2A (human, UniProt P48634 1-2157)
T7 construct: also called NP_004629.3 (+1)
Method: as §1, §2

T1 sequence (Q5T750 whole entry): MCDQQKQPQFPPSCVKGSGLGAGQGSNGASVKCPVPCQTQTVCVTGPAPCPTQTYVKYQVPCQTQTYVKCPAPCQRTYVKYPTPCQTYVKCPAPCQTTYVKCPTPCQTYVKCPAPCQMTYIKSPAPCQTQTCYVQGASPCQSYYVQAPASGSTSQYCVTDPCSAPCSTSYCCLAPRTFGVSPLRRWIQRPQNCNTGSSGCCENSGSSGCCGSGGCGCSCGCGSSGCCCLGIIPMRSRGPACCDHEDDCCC

co-IP mass spectrometry count (C1orf68): 2
co-IP mass spectrometry count (FAU): 7
co-IP mass spectrometry count (KRT6B): 331
co-IP mass spectrometry count (HNRNPK): 12
co-IP mass spectrometry count (RPS3): 23
co-IP mass spectrometry count (HUWE1): 0
co-IP mass spectrometry count (PRBP1): 9
co-IP mass spectrometry count (GGCT): 0
co-IP mass spectrometry count (PRRC2A): 5
B1: C-terminal FLAG tagged B3GNT2 (enzyme, human, UniProt Q9NY97 1-397, looked up)
chain: MSVGRRRIKLLGILMMANVFIYFIMEVSKSSSQEKNGKGEVIIPKEKFWKISTPPEAYWNREQEKLNRQYNPILSMLTNQTGEAGRLSNISHLNYCEPDLRVTSVVTGFNNLPDRFKDFLLYLRCRNYSLLIDQPDKCAKKPFLLLAIKSLTPHFARRQAIRESWGQESNAGNQTVVRVFLLGQTPPEDNHPDLSDMLKFESEKHQDILMWNYRDTFFNLSLKEVLFLRWVSTSCPDTEFVFKGDDDVFVNTHHILNYLNSLSKTKAKDLFIGDVIHNAGPHRDKKLKYYIPEVVYSGLYPPYAGGGGFLYSGHLALRLYHITDQVHLYPIDDVYTGMCLQKLGLVPEKHKGFRTFDIEEKNKNNICSYVDLMLVHSRKPQEMIDIWSQLQSAHLKC
notes: Overexpressed in cells and pulled down from the lysate with mouse anti-FLAG antibody; also called C-FLAG B3GNT2; C-term flag; not shown: C-terminal FLAG tag
